Measurements published in article PMC3897919, “ERAD and protein import defects in a sec61 mutant lacking ER-lumenal loop 7” (BMC Cell Biology, 2013).

Molecular target: T1, Sec61∆L7p (S. cerevisiae, UniProt P32915 1-480, amino acids 305–371 of wildtype Sec61p had been replaced by two amino acids …)
T1 construct: Sec61p, S. cerevisiae, lacking ER-lumenal loop 7 and the lumenal ends of TMDs 7 and 8; also called Sec61ΔL7p; Sec∆L7p; source: yeast KRY461 with sec61ΔL7pRS315 as sole copy of SEC61, in microsomes; solubilized in Triton-X100 or digitonin, or total protein reconstituted into proteoliposomes
T1 sequence (looked up): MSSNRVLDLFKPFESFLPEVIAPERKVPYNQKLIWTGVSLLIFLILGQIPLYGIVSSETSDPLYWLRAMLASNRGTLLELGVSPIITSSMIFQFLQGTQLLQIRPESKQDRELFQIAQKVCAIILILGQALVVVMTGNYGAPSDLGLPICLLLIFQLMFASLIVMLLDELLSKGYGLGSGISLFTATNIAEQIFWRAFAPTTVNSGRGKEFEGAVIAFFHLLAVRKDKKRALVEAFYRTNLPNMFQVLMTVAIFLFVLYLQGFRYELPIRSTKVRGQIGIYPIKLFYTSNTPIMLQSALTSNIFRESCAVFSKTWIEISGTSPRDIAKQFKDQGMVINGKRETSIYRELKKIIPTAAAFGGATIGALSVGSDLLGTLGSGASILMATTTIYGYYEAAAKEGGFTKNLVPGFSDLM
Test: cross-linking; intact microsomes in B88, pH 7.9, treated with DSS for 20 min at 20°C, quenched with ammonium acetate; SDS-PAGE and immunoblotting with anti-Sec61p or anti-Sss1p antibodies
Settings: partners not purified

B1: Sss1p (natural protein, UniProt P35179 1-80, looked up)
chain: MARASEKGEEKKQSNNQVEKLVEAPVEFVREGTQFLAKCKKPDLKEYTKIVKAVGIGFIAVGIIGYAIKLIHIPIRYVIV
notes: Sss1p, small subunit of the trimeric Sec61 complex, yeast; source: endogenous, yeast microsomes
In the case of B1, the “fold weaker crosslink than in wildtype membranes” value is reported as at least 5 fold.
